Assay results reported in US20250250357A1 (NANJING ZAIMING PHARMACEUTICAL, published 2025).
Like-named read-outs stand apart in the source and are kept apart here.

Assays:
[1] = biological target: T1, monkey MSLN full-length protein (NCBI: XP_028696439.1) expressed on HEK293T-monkey MSLN cells (monkey); assay: FACS on HEK293T-monkey MSLN cells
T1 construct: Whole encoded precursor
T1 chain: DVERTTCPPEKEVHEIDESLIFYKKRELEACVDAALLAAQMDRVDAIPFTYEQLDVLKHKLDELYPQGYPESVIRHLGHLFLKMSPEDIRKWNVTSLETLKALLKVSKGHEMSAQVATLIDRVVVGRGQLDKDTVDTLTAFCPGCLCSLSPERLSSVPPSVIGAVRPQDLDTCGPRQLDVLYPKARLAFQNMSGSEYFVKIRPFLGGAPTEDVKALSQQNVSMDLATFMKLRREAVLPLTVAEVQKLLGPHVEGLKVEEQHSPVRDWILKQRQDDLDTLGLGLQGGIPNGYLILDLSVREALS

[2] = biological target: T2, human MSLN full-length protein (NCBI: AAH09272.1) expressed on HEK293T-hMSLN-B8 cells (human, UniProt Q13421 296-598); assay: FACS on HEK293T-hMSLN-B8 cells
T2 construct: Whole encoded precursor
T2 sequence (Q13421 other isoform, or with tags, fused parts or gaps limits assumed): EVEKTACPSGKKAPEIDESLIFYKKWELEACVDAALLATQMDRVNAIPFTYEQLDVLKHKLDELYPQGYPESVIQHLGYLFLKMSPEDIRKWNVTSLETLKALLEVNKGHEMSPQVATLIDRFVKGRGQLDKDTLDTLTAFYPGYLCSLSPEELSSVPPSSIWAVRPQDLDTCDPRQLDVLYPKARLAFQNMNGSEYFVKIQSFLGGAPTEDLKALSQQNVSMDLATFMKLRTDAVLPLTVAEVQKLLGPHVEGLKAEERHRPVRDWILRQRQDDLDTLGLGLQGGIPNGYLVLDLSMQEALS

[3] = biological target: T3, human MSLN-R3 protein (Met487-Ser606 of NCBI AAH09272.1) expressed on HEK293T-hMSLN-R3 cells (human, UniProt Q13421 487-606); assay: FACS on HEK293T-hMSLN-R3 cells
T3 construct: also called Region3
T3 sequence (Q13421 495-614): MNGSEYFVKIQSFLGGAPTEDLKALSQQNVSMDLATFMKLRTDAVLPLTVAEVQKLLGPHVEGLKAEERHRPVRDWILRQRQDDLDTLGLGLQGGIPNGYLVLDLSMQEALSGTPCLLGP

[4] = biological target: T4, human MSLN protein endogenously expressed on OVCAR3 tumor cells (human, UniProt Q13421 296-598); assay: FACS on OVCAR3 cells
T4 construct: whole, on cells; Endogenous target on OVCAR3 cells; kept apart from the recombinant full-length construct; also called mesothelin

[5] = biological target: T5, human MSLN protein endogenously expressed on OVCAR3 tumor cells (human, UniProt Q13421 296-598); assay: FACS on OVCAR3 cells
T5 construct: whole, on cells; endogenous expression on a tumor cell line; also called human mesothelin

[6] = biological target: T6, human MSLN-FL-his protein (human, UniProt Q13421 296-580); assay: competitive ELISA; row F8-28.23; note: test concentration or dose not given here
T6 construct: made in HEK293E cells, purified on nickel column; also called hMSLN-FL-his; human MSLN full-length protein; not shown: His tag
T6 sequence (Q13421 other isoform, or with tags, fused parts or gaps): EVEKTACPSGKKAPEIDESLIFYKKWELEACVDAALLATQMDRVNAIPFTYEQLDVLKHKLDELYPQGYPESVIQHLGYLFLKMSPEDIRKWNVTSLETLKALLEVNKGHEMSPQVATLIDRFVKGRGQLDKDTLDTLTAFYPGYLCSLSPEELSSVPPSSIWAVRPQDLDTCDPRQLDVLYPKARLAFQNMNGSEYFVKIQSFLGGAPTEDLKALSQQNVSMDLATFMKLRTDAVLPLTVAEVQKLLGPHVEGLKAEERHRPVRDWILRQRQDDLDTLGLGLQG

[7] = biological target: T7, human MSLN-R3 protein expressed on HEK293T cells (HEK293T-hMSLN-R3) (human, UniProt Q13421 487-606); assay: FACS on HEK293T-hMSLN-R3 cells;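 note: chimeric antibodies incubated with cells on ice for 2 h, binding read by flow cytometry as mean fluorescence intensity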
T7 construct: C-terminal limit uncertain
T7 sequence (Q13421 495-614): as the sequence (Q13421 495-614) above

[8] = biological target: T6, human MSLN-FL-his protein; assay: competitive ELISA; row F8-22.23; note: test concentration or dose not given here
[9] = biological target: T6, human MSLN-FL-his protein; assay: SPR (Biacore), antibody captured on Protein A chip;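 note: flow cell at 25 °C, antigen injected for 240 s at five concentrations from 200 nM downward, dissociation followed up to 600 s, double-referenced, fitted with Langmuir 1:1 model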
[10] = biological target: T6, human MSLN-FL-his protein; assay: competitive ELISA; row F8-8.22; note: test concentration or dose not given here
[11] = biological target: T6, human MSLN-FL-his protein; assay: competitive ELISA; row F8-36.12; note: test concentration or dose not given here
[12] = biological target: T6, human MSLN-FL-his protein; assay: competitive ELISA; row Tab021; note: test concentration or dose not given here
[13] = biological target: T6, human MSLN-FL-his protein; assay: competitive ELISA; row F8-9.16; note: test concentration or dose not given here
[14] = biological target: T6, human MSLN-FL-his protein; assay: competitive ELISA; row F8-32.3; note: test concentration or dose not given here
[15] = biological target: T6, human MSLN-FL-his protein; assay: competitive ELISA; row Tab142; note: test concentration or dose not given here
[16] = biological target: T6, human MSLN-FL-his protein; assay: competitive ELISA; row F8-24.14; note: test concentration or dose not given here
[17] = biological target: T6, human MSLN-FL-his protein; assay: competitive ELISA; row F8-33.12; note: test concentration or dose not given here
[18] = biological target: T6, human MSLN-FL-his protein; assay: competitive ELISA; row F8-29.1; note: test concentration or dose not given here

Binder	EC50 [5]	Maximum mean fluorescence intensity [5]	competition rate [6]	Maximum mean fluorescence intensity [7]	binding result [7]	competition rate [8]	Kd [9]	koff [9]	kon [9]	competition rate [10]	competition rate [11]	competition rate [12]	competition rate [13]	competition rate [14]	competition rate [15]	competition rate [16]	competition rate [17]	competition rate [18]	further results
S009-F6-76.1 (antibody, human IgG1, kappa, V domains shown, human-murine chimeric antibody, human IgG1/kappa constant regions) VH: QVQLQQSGPELVKPGASVKISCKASGYTFTDYYINWVKQRPGQGLEWIGWIFPGRGSTFYYEKFKGKATLTVDKSSSTAYMLLSSLTSEDSAVYFCARRGDSAGYEDLDYWGQGTSVTVSS VL: NIVMTQSPKFMSMSVGERVTLSCKASENVVTYVSWYQQKPKQSPKLLIYGASKRYTGVPDRFTGSGSATDFTLTISSVQAEDLGDYHCGQSYSYPYTFGGGTKLEIKR	–	–	–	–	–	–	–	–	–	–	–	–	–	–	–	–	–	–	Maximum mean fluorescence intensity [1]: 131; binding result [1]: no binding; EC50 [2]: 1.39 nM; Maximum mean fluorescence intensity [2]: 231000; Maximum mean fluorescence intensity [3]: 135; binding result [3]: no binding; EC50 [4]: 4.13 nM; Maximum mean fluorescence intensity [4]: 6810
S009-F8-29.1 (antibody, human IgG1, kappa, V domains shown, human-murine chimeric antibody, human IgG1/kappa constant regions) VH: QVQLQQSGAELARPGASVKMSCKASGYTFISYTMHWVKQRPGQGLEWIGYINPSSGYTKYNQKFKDKATLTADKSSSTAYMQLNSLTSEDSAVYYCARYYSNPDYYAMDYWGQGTSVTVSS VL: QIVLTQSPAIMSASPGEKVTITCSASSSVSYMHWFQQKPGTSPKLWIYSTSNLASGVPARFSGSGSGTSYSLTISRMEAEDAATYYCQQRSSYPLTFGGGTKLELKR	33.4 nM	5430	96%	69	no binding	88.5%	27.4 nM	0.0199 s⁻¹	728000 M⁻¹ s⁻¹	88.4%	-146%	11.1%	-37.3%	75.8%	36.8%	89.8%	47.3%	62.2%	–
S009-F6-62.5 (antibody, human IgG1, kappa, V domains shown, human-murine chimeric antibody, human IgG1/kappa constant regions) VH: QVQLQQPGTELVKPGASVKLSCRASGYTFTAYWMHWVKQRPGQGLEWIGNINPSNGGTDFNEKFKSKATLTVDKSSSTAYMQLSSLTSEDSAVYYCARGRGYFDVWGTGTTVTVSS VL: DILLTQSPAILSVSPGERVSFSCRASKNIGTSIHWYQQRTNGSPRLLIKYASESISGIPSRFSGSGSGTDFTLNINSVESEDIADYYCQQSNSWPTLTFGAGTKLELKR	–	–	–	–	–	–	–	–	–	–	–	–	–	–	–	–	–	–	Maximum mean fluorescence intensity [1]: 202; binding result [1]: no binding; EC50 [2]: 0.41 nM; Maximum mean fluorescence intensity [2]: 202000; Maximum mean fluorescence intensity [3]: 186; binding result [3]: no binding; EC50 [4]: 0.31 nM; Maximum mean fluorescence intensity [4]: 2600
S009-F8-33.12 (antibody, human IgG1, kappa, V domains shown, human-murine chimeric antibody, human IgG1/kappa constant regions) VH: EVQLQQSGAELVKPGASVKLSCTASAFNIKDYYMHWVKQRTEQGLEWIGRIDPEDGETKYAPKFQGKATITADTSSNTAYLQLSSLTSEDTAVYYCASGSGTGAMDYWGQGTSVTVSS VL: DIVMTQSQKFMSTSVGDRVSITCKASQNVRTAVGWYQQKPGQSPKALIYLASNRHTGVPDRFTGSGSGTDFTLTISNVQSEDLADYFCLQHWNSPYTFGGGTKLVIKR	28.4 nM	2410	102%	64	no binding	96.6%	5.77 nM	0.0361 s⁻¹	6.27e+06 M⁻¹ s⁻¹	96%	-134%	9.4%	-89.6%	84.9%	47.9%	95.5%	62.8%	70.6%	–
S009-F8-8.22 (antibody, human IgG1, kappa, V domains shown, human-murine chimeric antibody, human IgG1/kappa constant regions) VH: EVQLQQSGPELVKPGASVKMSCKASGYTFTDYIIHWVKQSHGKSLEWIAYIFPNNGGTGYNQKFRGKATLTVNKSSSTAYMELRSLTSEDSAVYYCARWRLRQYFDVWGTGTTVTVSS VL: DIVMTQSQKFMSTIVGDRVSITCKASQNVGTAVAWYQQKPGQSPKLLIYSASNRYTGVPDRFTGSGSGTDFTLTISNMQSEDLADYFCQQYSSYPLTFGGGTKLEIKR	9.9 nM	4270	97.4%	122	no binding	96.1%	12.8 nM	0.00937 s⁻¹	732000 M⁻¹ s⁻¹	92.2%	-138%	12.6%	-52.1%	77.7%	33.8%	91.1%	53.5%	59.2%	–
S009-F8-28.23 (antibody, human IgG1, kappa, V domains shown, human-murine chimeric antibody, human IgG1/kappa constant regions) VH: EVQLVESGGDLVKPGGSLKLSCAASGFTFSSYAMSWVRQTPEKRLEWVATISDGGSYTYYPDNVEGRFTISRDNAKNNLYLQMSHLKSEDTAMYYCAGDRGYSYALDYWGQGTSVTVSS VL: NIMMTQSPSSLAVSAGEKVTMSCKSSQSVLYSSNQKNYLAWYQQKPGQSPKLLIYWASTRESGVPDRFTGSGSGTDFTLTISSVQAEDLAVYYCHQYLSSLTFGAGTKLELKR	59.8 nM	1290	73.4%	51	no binding	38.6%	44 nM	0.00843 s⁻¹	192000 M⁻¹ s⁻¹	24.9%	-79.5%	7.7%	-39.8%	22.9%	9.8%	33.6%	10%	18.8%	–
S009-F8-22.23 (antibody, human IgG1, kappa, V domains shown, human-murine chimeric antibody, human IgG1/kappa constant regions) VH: QVQLKQSGPGLVQPSQSLSITCTVSGFSLFSYGVHWVRQSPGKGLEWLGVIWSGGSTDYNAAFISRLSISKDNSKSQVFFKMNSLQADDTAMYYCARNGGSMITTLYYAMDYWGQGTSVTVSS VL: DVVMTQTPLSLPVSLGDQASISCRSSQSLVHSYGNTYLHWYLQKPGQSPKLLIYKVSNRFSGVPDRFSGSGSGTDFTLKISRVEAEDLGVYFCSQSTHIPFTFGGGTKLEIKR	12.8 nM	5500	100%	404	–	95.7%	6.35 nM	0.00275 s⁻¹	433000 M⁻¹ s⁻¹	94%	-156%	11.4%	-158%	85.4%	46.4%	92.4%	60.3%	70%	–
S009-F8-32.3 (antibody, human IgG1, kappa, V domains shown, human-murine chimeric antibody, human IgG1/kappa constant regions) VH: QVQLKESGPGLVAPSQSLSITCTVSGFSLSSYAISWVRQPPGKGLEWLGVIWTGGGTNYNSALKSRLSISKDNSKSQVFLKMNSLQTDDTARFYCARNNYGRLDYAMDYWGQGTSVTVSS VL: DVVMTQTPLSLPVSLGDQASISCRSSQSLVHGNGNTYLHWYLQKPGQSPKLLIYKVSNRFSGVPDRFSGSGSGTDFTLKISRVETEDLGVYFCSQSTHVPFTFGSGTKLEIKR	14.7 nM	8270	102%	50	no binding	96.6%	6.5 nM	0.00331 s⁻¹	510000 M⁻¹ s⁻¹	94.4%	-164%	10.9%	-113%	79.3%	40.6%	95%	56.5%	65.9%	–
